# Assay results taken from patent US20140107316A1, “DRUG DELIVERY CONJUGATES CONTAINING UNNATURAL AMINO ACIDS AND METHODS FOR USING” (priority 2012, published 2014).
# “Also recorded” adds a separate entry of the source. Marks after values point to notes of the source that are not given here.
# Columns and labels:
# [1] = Maximum tolerated dose (MTD); format: in vivo, female Sprague-Dawley rats
# Text: Maximum tolerated dose (MTD). […] For Example, EC1456 has a MTD of at least 0.51 μmol/kg and EC0531 has a MTD of 0.33 μmol/kg, […] when administered by i.v., BIW, 2 wks in female Sprague-Dawley rats. Histopathologic changes were not observed with doses of EC1456 at or below the MTD.
# KB tumors = assay: KB tumor assay in nu/nu mice; conditions: for CR (%) / Cures (%) / PR (%) / Toxicity Deaths (%) / Toxicity Avg. Weight Loss: TIW
# Protocol: Inhibition of Tumor Growth in Mice. Four to seven week-old mice (Balb/c or nu/nu strains) were purchased from Harlan Sprague Dawley, Inc. (Indianapolis, Ind.). Normal rodent chow contains a high concentration of folic acid (6 mg/kg chow); accordingly, mice used were maintained on the folate-free diet (Harlan diet #TD00434) for 1 week before tumor implantation to achieve serum folate concentrations close to the range of normal human serum. For tumor cell inoculation, 1×10^6 M109 cells (Balb/c strain) or 1×10^6 KB cells (nu/nu strain) in 100 μL were injected in the subcutis of the dorsal medial area. Tumors were measured in two perpendicular directions every 2-3 days using a caliper, and their volumes were calculated as 0.5×L×W^2, where L=measurement of longest axis in mm and W=measurement of axis perpendicular to L in mm. […] Dosing solutions were prepared fresh each day in PBS and administered through the lateral tail vein of the mice.
# General KB Tumor Assay. The anti-tumor activity of the compounds described herein, when administered intravenously (i.v.) to tumor-bearing animals, was evaluated in nu/nu mice bearing subcutaneous KB tumors. Approximately 8 days post tumor inoculation in the subcutis of the right axilla with 1×10^6 KB cells (average tumor volume at to=50-100 mm^3), in mice (5/group) were injected i.v. three times a week (TIW), for 3 weeks with […] of the drug delivery conjugate or with an equivalent dose volume of PBS (control), unless otherwise indicated. Tumor growth was measured using calipers at 2-day or 3-day intervals in each treatment group. Tumor volumes were calculated using the equation V=a×b^2/2, where “a” is the length of the tumor and “b” is the width expressed in millimeters.
# Toxicity as Measured by Weight Loss. The percentage weight change of the mice was determined in mice (5 mice/group) on selected days post-tumor inoculation (PTI), and graphed.
# In vivo activity against tumors.
compound,measurement,setting,value
CCCC(=O)OCN(C(=O)[C@@H](NC(=O)[C@H]1CCCCN1C)[C@@H](C)CC)[C@H](C[C@@H](OC(C)=O)c1nc(C(=O)N[C@@H](Cc2ccc(O)cc2)C[C@H](C)C(=O)NNC(=O)OCCSSC[C@@H](NC(=O)[C@H](CCC(=O)NC[C@H](O)[C@@H](O)[C@H](O)[C@H](O)CO)NC(=O)[C@@H](CCC(=O)O)NC(=O)[C@H](CCC(=O)NC[C@H](O)[C@@H](O)[C@H](O)[C@H](O)CO)NC(=O)[C@@H](CCC(=O)O)NC(=O)[C@H](CCC(=O)NC[C@H](O)[C@@H](O)[C@H](O)[C@H](O)CO)NC(=O)CC[C@@H](NC(=O)c2ccc(NCc3cnc4nc(N)[nH]c(=O)c4n3)cc2)C(=O)O)C(=O)O)cs1)C(C)C [EC1456],Histopathologic changes,[1]; doses at or below the MTD,not observed
same,improvement in MTD over EC0531,"[1]; i.v., BIW, 2 wks",65%
same,MTD,"[1]; rat, in vivo, iv, BIW, 2 wks",≥ 0.51 µmol/kg
same,In vivo activity,KB tumors,Complete
same,CR (%),"KB tumors; 0.5 μmol/kg, 3 weeks",0%
same,Cures (%),"KB tumors; 0.5 μmol/kg, 3 weeks",0%
same,PR (%),"KB tumors; 0.5 μmol/kg, 3 weeks",60%
same,Toxicity Deaths (%),"KB tumors; 0.5 μmol/kg, 3 weeks",0%
same,Toxicity Avg. Weight Loss,"KB tumors; 0.5 μmol/kg, 3 weeks, untreated control group 2.4%",<5%*
same,CR (%),"KB tumors; 0.67 μmol/kg, 2 weeks",20%
same,Cures (%),"KB tumors; 0.67 μmol/kg, 2 weeks",0%
same,PR (%),"KB tumors; 0.67 μmol/kg, 2 weeks",60%
same,Toxicity Avg. Weight Loss,"KB tumors; 0.67 μmol/kg, 2 weeks",<2%
same,Toxicity Deaths (%),"KB tumors; 0.67 μmol/kg, 2 weeks",0%
same,specific activity mediated by the folate receptor,KB tumors; 1 μmol/kg TIW co-dosed with excess EC0923 (50 or 100 μmol/kg),competable with excess EC0923
same,whole animal toxicity (animal body weight),"KB tumors; 1 μmol/kg TIW, 2 wk",did not result in any observable gross toxicity; also recorded: does not show any evidence of whole animal toxicity
same,CR (%),"KB tumors; 1.0 μmol/kg, 2 weeks",0%
same,Cures (%),"KB tumors; 1.0 μmol/kg, 2 weeks",60%
same,PR (%),"KB tumors; 1.0 μmol/kg, 2 weeks",40%
same,Toxicity Avg. Weight Loss,"KB tumors; 1.0 μmol/kg, 2 weeks",<1.5%
same,Toxicity Deaths (%),"KB tumors; 1.0 μmol/kg, 2 weeks",0%
same,CR (%),"KB tumors; 2.0 μmol/kg, 2 weeks",0%
same,Cures (%),"KB tumors; 2.0 μmol/kg, 2 weeks",100%
same,PR (%),"KB tumors; 2.0 μmol/kg, 2 weeks",0%
same,Toxicity Avg. Weight Loss,"KB tumors; 2.0 μmol/kg, 2 weeks",<3%
same,Toxicity Deaths (%),"KB tumors; 2.0 μmol/kg, 2 weeks",0%
same,complete response (test animals),"KB tumors; intravenously 1 μmol/kg TIW, 2 wk",4/4
same,toxicity in relation to anti-tumor effect in mice,"KB tumors; mouse, in vivo",anti-tumor responses without significant toxicity
